Results taken from the supplement of paper PMC9112550, “Optimization of the antimicrobial peptide Bac7 by deep mutational scanning” (BMC Biology, 2022).

System: Escherichia coli TOP10
Test: shrunken log2 fold change of peptide-encoding DNA abundance (4.5 h post-induction vs induction); higher = less antimicrobial activity (less host growth inhibition)
Settings: time post-induction: 4.5 h; library: site-saturation at positions 5, 18, 19, 20
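Further: peptides expressed intracellularly from a pBAD plasmid library in pooled LB shake-flask culture, induced with 0.3% L-arabinose, DNA abundance read by NGS, three biological replicates, DESeq2 with apeglm shrinkage.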

RRIRKRPPRLPRPRPRPYVMPRP
shrunken log2 fold change: -0.223

RRIRKRPPRLPRPRPRPYWVPRP
shrunken log2 fold change: -0.306

RRIRKRPPRLPRPRPRPYYQPRP
shrunken log2 fold change: -0.194

RRIRKRPPRLPRPRPRPYYWPRP
shrunken log2 fold change: -0.281

RRIRLRPPRLPRPRPRPAADPRP
shrunken log2 fold change: 0.832

RRIRLRPPRLPRPRPRPACAPRP
shrunken log2 fold change: 0.541

RRIRLRPPRLPRPRPRPACCPRP
shrunken log2 fold change: 0.0218

RRIRLRPPRLPRPRPRPACDPRP
shrunken log2 fold change: 0.15

RRIRLRPPRLPRPRPRPACHPRP
shrunken log2 fold change: 0.186

RRIRLRPPRLPRPRPRPACQPRP
shrunken log2 fold change: -0.0858

RRIRLRPPRLPRPRPRPADLPRP
shrunken log2 fold change: 0.0231

RRIRLRPPRLPRPRPRPAEDPRP
shrunken log2 fold change: -0.00769

RRIRLRPPRLPRPRPRPAEWPRP
shrunken log2 fold change: 0.0143

RRIRLRPPRLPRPRPRPAFCPRP
shrunken log2 fold change: 0.289

RRIRLRPPRLPRPRPRPAFHPRP
shrunken log2 fold change: -0.0947

RRIRLRPPRLPRPRPRPAGCPRP
shrunken log2 fold change: 0.263

RRIRLRPPRLPRPRPRPAIAPRP
shrunken log2 fold change: 0.118

RRIRLRPPRLPRPRPRPAIYPRP
shrunken log2 fold change: -1.28

RRIRLRPPRLPRPRPRPAKIPRP
shrunken log2 fold change: -0.143

RRIRLRPPRLPRPRPRPAKQPRP
shrunken log2 fold change: 0.0963

RRIRLRPPRLPRPRPRPALVPRP
shrunken log2 fold change: -0.0636

RRIRLRPPRLPRPRPRPAMIPRP
shrunken log2 fold change: -0.223

RRIRLRPPRLPRPRPRPANMPRP
shrunken log2 fold change: -0.0319

RRIRLRPPRLPRPRPRPANTPRP
shrunken log2 fold change: -0.124

RRIRLRPPRLPRPRPRPAQWPRP
shrunken log2 fold change: -0.0397

RRIRLRPPRLPRPRPRPARAPRP
shrunken log2 fold change: 0.268

RRIRLRPPRLPRPRPRPARVPRP
shrunken log2 fold change: 0.329

RRIRLRPPRLPRPRPRPAVFPRP
shrunken log2 fold change: 0.142

RRIRLRPPRLPRPRPRPAVPPRP
shrunken log2 fold change: 0.3

RRIRLRPPRLPRPRPRPAWDPRP
shrunken log2 fold change: 0.0108

RRIRLRPPRLPRPRPRPAWWPRP
shrunken log2 fold change: 0.173

RRIRLRPPRLPRPRPRPAWYPRP
shrunken log2 fold change: 0.0232

RRIRLRPPRLPRPRPRPCDKPRP
shrunken log2 fold change: -0.304

RRIRLRPPRLPRPRPRPCDYPRP
shrunken log2 fold change: -0.191

RRIRLRPPRLPRPRPRPCEQPRP
shrunken log2 fold change: 0.0377

RRIRLRPPRLPRPRPRPCFGPRP
shrunken log2 fold change: -0.0493

RRIRLRPPRLPRPRPRPCHFPRP
shrunken log2 fold change: -0.285

RRIRLRPPRLPRPRPRPCIVPRP
shrunken log2 fold change: -0.641

RRIRLRPPRLPRPRPRPCLAPRP
shrunken log2 fold change: -0.219

RRIRLRPPRLPRPRPRPCLGPRP
shrunken log2 fold change: -0.25

RRIRLRPPRLPRPRPRPCLKPRP
shrunken log2 fold change: -0.682

RRIRLRPPRLPRPRPRPCNAPRP
shrunken log2 fold change: -0.129

RRIRLRPPRLPRPRPRPCPYPRP
shrunken log2 fold change: 0.0232

RRIRLRPPRLPRPRPRPCQTPRP
shrunken log2 fold change: -0.0348

RRIRLRPPRLPRPRPRPCRNPRP
shrunken log2 fold change: -0.241

RRIRLRPPRLPRPRPRPCTFPRP
shrunken log2 fold change: -0.0569

RRIRLRPPRLPRPRPRPCTLPRP
shrunken log2 fold change: -0.328

RRIRLRPPRLPRPRPRPCVVPRP
shrunken log2 fold change: -0.457

RRIRLRPPRLPRPRPRPCVYPRP
shrunken log2 fold change: -0.352

RRIRLRPPRLPRPRPRPCYRPRP
shrunken log2 fold change: -0.145

RRIRLRPPRLPRPRPRPCYYPRP
shrunken log2 fold change: -0.936

RRIRLRPPRLPRPRPRPDAKPRP
shrunken log2 fold change: 0.0577

RRIRLRPPRLPRPRPRPDDDPRP
shrunken log2 fold change: 0.129

RRIRLRPPRLPRPRPRPDDFPRP
shrunken log2 fold change: -0.0359

RRIRLRPPRLPRPRPRPDDGPRP
shrunken log2 fold change: -0.00277

RRIRLRPPRLPRPRPRPDEQPRP
shrunken log2 fold change: -0.017

RRIRLRPPRLPRPRPRPDERPRP
shrunken log2 fold change: 0.0169

RRIRLRPPRLPRPRPRPDFNPRP
shrunken log2 fold change: -0.444

RRIRLRPPRLPRPRPRPDGGPRP
shrunken log2 fold change: -0.000524

RRIRLRPPRLPRPRPRPDIEPRP
shrunken log2 fold change: 0.0333

RRIRLRPPRLPRPRPRPDIIPRP
shrunken log2 fold change: -0.173

RRIRLRPPRLPRPRPRPDKFPRP
shrunken log2 fold change: -0.26

RRIRLRPPRLPRPRPRPDKTPRP
shrunken log2 fold change: -0.146

RRIRLRPPRLPRPRPRPDMGPRP
shrunken log2 fold change: 0.0446

RRIRLRPPRLPRPRPRPDPRPRP
shrunken log2 fold change: 0.603

RRIRLRPPRLPRPRPRPDQKPRP
shrunken log2 fold change: 0.0416

RRIRLRPPRLPRPRPRPDQPPRP
shrunken log2 fold change: -0.129

RRIRLRPPRLPRPRPRPDRFPRP
shrunken log2 fold change: -0.00452

RRIRLRPPRLPRPRPRPDSGPRP
shrunken log2 fold change: -0.00166

RRIRLRPPRLPRPRPRPDTAPRP
shrunken log2 fold change: 0.0121

RRIRLRPPRLPRPRPRPDVIPRP
shrunken log2 fold change: -0.161

RRIRLRPPRLPRPRPRPDYPPRP
shrunken log2 fold change: -0.307

RRIRLRPPRLPRPRPRPEASPRP
shrunken log2 fold change: 0.133

RRIRLRPPRLPRPRPRPECNPRP
shrunken log2 fold change: -0.0178

RRIRLRPPRLPRPRPRPEDAPRP
shrunken log2 fold change: 0.368
